Target: the molecule itself
Assay: SEC

B1: ROK fructokinase YdhR from Bacillus subtilis, native protein (size exclusion chromatography) (enzyme, B. subtilis, UniProt O05510 1-299, looked up)
chain: MLGGIEAGGTKFVCAVGREDGTIIDRIEFPTKMPDETIEKVIQYFSQFSLQAIGIGSFGPVDNDKTSQTYGTITATPKAGWRHYPFLQTVKNEMKIPVGFSTDVNAAALGEFLFGEAKGLDSCLYITIGTGIGAGAIVEGRLLQGLSHPEMGHIYIRRHPDDVYQGKCPYHGDCFEGLASGPAIEARWGKKAADLSDIAQVWELEGYYIAQALAQYILILAPKKIILGGGVMQQKQVFSYIYQYVPKIMNSYLDFSELSDDISDYIVPPRLGSNAGIIGTLVLAHQALQAEAASGEVRS
For B1, which “stoichiometry N” value is on record?
Its value is 2.
